The test system of data set [1] is MS2 coat protein. Description: apparent KD of MS2 coat protein, switch ON state; designed switch direction (-1 OFF switch, 1 ON switch): -1; higher = weaker reporter binding. The conditions noted are these: FMN input: 0 or 200 uM; Eterna round: R93 (includes R88 designs). Summed up:
(§1)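 Each design's apparent KD comes from the median of binding-curve fits to its normalised clusters. Those clusters carried RNA switches transcribed on-chip from Illumina sequencing clusters. SNAP-549-labelled MS2 coat protein was titrated onto them in twofold steps (0.7 or 1.5 nM to 3 µM; per step 0.8–1.5 h down to 10–20 min). Conditions were 100 mM Tris-HCl pH 7.5, 80 mM KCl, 4 mM MgCl2, without or with constant ligand.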

For data set [2], the system named is MS2 coat protein. In words: apparent KD of MS2 coat protein, switch OFF state (with FMN for OFF switches, without FMN for ON switches); designed switch direction (-1 OFF switch, 1 ON switch): -1; higher = weaker reporter binding. The conditions noted are these: FMN input: 0 or 200 uM; Eterna round: R93 (includes R88 designs). The procedure, abridged:
as §1

40 sequences from the supplement of paper PMC9170038 can be followed below.

As for “AAAAAACAUGAGGAUCACCCAUGUGAGGAUAUCUGUAUUCAAUCCUCGGAUUGAAUACAGAGAAGGCACAUGAA [Ex1: 611]”, the “apparent KD of MS2 coat protein” value in the data set on MS2 coat protein [1] is 34 nM; with MS2 coat protein [2] it was 330 nM.
Regarding “AAAAAACAUGAGGAUCACCCAUGUGAGGAUAUGACUUAAAUAAAGAAAGAAGAAAUAGUCAGAAGGCACAAAUA [Mat - Mod of Nando]”, the “apparent KD of MS2 coat protein” value in the data set with MS2 coat protein [1] came out at 28.6 nM; in the data set on MS2 coat protein [2], 42.9 nM.
For “AAAAAACAUGAGGAUCACCCAUGUGAGGAUAUGAUGAAAGAUUGAAAAAGGUUGAAAGUCAGAAGGUAUGUGAA [Exclusion 1.3]”, the “apparent KD of MS2 coat protein” value turned out to be 30.4 nM with MS2 coat protein [1] and 35.7 nM in the data set on MS2 coat protein [2].
“AAAAAACAUGAGGAUCACCCAUGUGAGGAUAUGCUAAAAAAAUCCGCAUGAAAAAAUAGCAGAAGGCACAUAAA [PK2]”: the “apparent KD of MS2 coat protein” value with MS2 coat protein [1] is 29.6 nM; in the data set with MS2 coat protein [2] it was 52.5 nM.
The corresponding values for “AAAAAACAUGAGGAUCACCCAUGUUAGGAUAUGCUAUGGAAAAUAAAAAUAAAACAUAGCAGAAGGGACAAAAA [Denovo 1]” are 21.3 nM and 32 nM.
With “AAAAAACAUGAGGAUCACCCAUGUUAGGAUAUUCCUAAAAAAAAAAAAAAAAAAAAUGGAAGAAGGGACAAAAA [excalibur 9]”, the “apparent KD of MS2 coat protein” value came to 21.2 nM with MS2 coat protein [1] and 20.6 nM in the data set with MS2 coat protein [2].
Turning to “AAAAACCUAGGAUAUACAUGAGGAUCACCCAUGUAAAGAAACAAAAAGGGAAACACAAGUAGAAGGAGGAAGAA [JR_Exc003_Sub1203]”, the “apparent KD of MS2 coat protein” value in the data set with MS2 coat protein [1] was determined as 22.6 nM; in the data set on MS2 coat protein [2], 27.4 nM.
Regarding “AAAAACUGAGGAUAUACAUGAGGAUCACCCAUGUGAAAGAACGAAAAACGAAAAGCAAGUAGAAGGCAGAAAAA [Ruby 77]”, the “apparent KD of MS2 coat protein” value was found to be 20.9 nM with MS2 coat protein [1] and 26.1 nM in the data set on MS2 coat protein [2].
Take “AAAAAGAGAGGAUAUACAUGAGGAUCACCCAUGUAACAUUAAAUAAAUAAAAUAAAGUGUAGAAGGCUCAAAAA [65%, Moding Exclusion3-cac2, 24]”: the “apparent KD of MS2 coat protein” value with MS2 coat protein [1] turned out to be 27.9 nM; with MS2 coat protein [2] it was 34.3 nM.
In the case of “AAAAAGAGAGGAUAUACAUGAGGAUCACCCAUGUGAAAGACGAAAAAAAGUCUAAAGUGUAGAAGGCUCAAAAA [65%, Moding Exclusion3-cac2, 14]”, the “apparent KD of MS2 coat protein” value with MS2 coat protein [1] is 25.3 nM; in the data set with MS2 coat protein [2], 104 nM.
Consider “AAAAAGAUAGGAUAUACGAACAUGUCAAAAGACGUGAAGGGACAUGAGGAUCACCCAUGUAGAAGGAUUAAAAA [JL Wide Open 39]”, for which the “apparent KD of MS2 coat protein” value in the data set with MS2 coat protein [1] came out at 38.8 nM; with MS2 coat protein [2] it was 17.2 nM.
Turning to “AAAAAGCGAGGAUAUACAUGAGGAUCACCCAUGUAAAAAAAAAGAGAUGAAACAUCAUGUAGAAGGCGCAAAAA [Excls3-I]”, the “apparent KD of MS2 coat protein” value with MS2 coat protein [1] was 131 nM; in the data set with MS2 coat protein [2] it was 67.1 nM.
As to “AAAAAGCUAGGAUAUACGAAAAAAAAGGGUAGAAAAAAAAAACAUGAGGAUCACCCAUGUAGAAGGAGCAAAAA [Mat - Exclusion 2 - Tesla mod - D34]”, the “apparent KD of MS2 coat protein” value with MS2 coat protein [1] was 51.5 nM; with MS2 coat protein [2] it was 103 nM.
For “AAAAAGGGAGGAUAUACAUGAGGAUCACCCAUGUAUCAGACGAAAAAGAGUCUGAAAUGUAGAAGGCCCAAAAA [65%, Moding Exclusion3-cac2, 2]”, the “apparent KD of MS2 coat protein” value was determined as 20.7 nM with MS2 coat protein [1] and 35.8 nM in the data set with MS2 coat protein [2].
With “AAAAAGGUAGGAUAUACAUGAGGAUCACCCAUGUACAUAAAUGGAGAAAAAAACAGUUGUAGAAGGGCCAAAAA [Ex3 Malc#9]”, the results for the “apparent KD of MS2 coat protein” value in the data set on MS2 coat protein [1] and in the data set on MS2 coat protein [2] were 41.7 nM and 34.5 nM, respectively.
As to “AAAAAGGUAGGAUAUACAUGAGGAUCACCCAUGUCGCGGCGCGCGGACAGCCCGCCCUGUAGAAGGACCAAAAA [Default title]”, the entries for the “apparent KD of MS2 coat protein” value in the data set with MS2 coat protein [1] and with MS2 coat protein [2] were 35 nM and 28.6 nM, respectively.
The corresponding values for “AAAAAGUCAGGAUAUGUGGAAAAAAUAAAAAAAAUAAAAACACAGAAGGGACAUGAGGAUCACCCAUGUUAAAA [Ex 4 May 18]” are 45.4 nM and 35.1 nM.
With “AAAAAGUGAGGAUAUACGCUGAGGAGUAGACACAACCUGGCGUAGAAGGCACAUGAGGAUCACCCAUGUCCAAA [EX4 Malc#12]”, the “apparent KD of MS2 coat protein” value was determined as 24.3 nM with MS2 coat protein [1] and 41.5 nM in the data set on MS2 coat protein [2].
With “AAAAAGUGAGGAUAUCGGAAAAAAAAAAAAAAAAAAAAAAACGAGAAGGCACAUGAGGAUCACCCAUGUAAAAA [all GC all the time + G boost - take 2]”, the “apparent KD of MS2 coat protein” value came out at 42.2 nM in the data set on MS2 coat protein [1] and 45.6 nM in the data set on MS2 coat protein [2].
On to “AAAAAGUGAGGAUAUUCGGAUAGGAAAACGAAAACCUAUCCGAAGAAGGCACAUGAGGAUCACCCAUGUAAAGA [Mat - Exaclusion 4 - Eli mod - D40]”, for which the “apparent KD of MS2 coat protein” value turned out to be 30.8 nM with MS2 coat protein [1] and 40.2 nM with MS2 coat protein [2].
As for “AAAAAUGGAGGAUAUACAUGAGGAUCACCCAUGUGAAACAAAAAAAAAAACAAAAAAAGUAGAAGGCCAAAAAA [Gilly Gone Silly 2 - Jieux - Exclusion 3]”, the “apparent KD of MS2 coat protein” value in the data set with MS2 coat protein [1] turned out to be 36.7 nM; in the data set on MS2 coat protein [2] it was 53.6 nM.
Consider “AAAACACAUGAGGAUCACCCAUGUGAGGAUAUGCAAAACCCAUAUAAAAAGGGAAAAAGCAGAAGGCACAAAAA [wbt round 1 mod 12]”, for which the “apparent KD of MS2 coat protein” value worked out at 22.4 nM in the data set with MS2 coat protein [1] and 27.8 nM in the data set on MS2 coat protein [2].
Regarding “AAAACACAUGAGGAUCACCCAUGUGAGGAUAUGCUAGUGAAAAUAAAAAUAAAACAUAGCAGAAGGCACAAGGA [Amethyst 79]”, the “apparent KD of MS2 coat protein” value came to 43.7 nM with MS2 coat protein [1] and 45.8 nM in the data set on MS2 coat protein [2].
As for “AAAAUGUCAGGAUAUUCGGAUAGGAAAACGAAAACCUAUCCGAAGAAGGGACAUGAGGAUCACCCAUGUAAAAA [Starry Exclusion 4.2 (cataway round 1 mod)]”, the “apparent KD of MS2 coat protein” value in the data set on MS2 coat protein [1] was found to be 81.4 nM; in the data set with MS2 coat protein [2], 341 nM.
Take “AAAAUGUGAGGAUAUGUACGAAAAAAUAAAAAAAUAAAAGUACAGAAGGCACAUGAGGAUCACCCAUGUGAAAA [EX4 396: Minimal 9]”: the “apparent KD of MS2 coat protein” value in the data set with MS2 coat protein [1] is 28.3 nM; with MS2 coat protein [2], 79.1 nM.
As for “AAACGUAGAGGAUAUACAGGGCUAUUACGAAAGUAAUAGAAACAUGAGGAUCACCCAUGUAGAAGGCUACGAAA [Mod2 of Meechl 64% 1]”, the “apparent KD of MS2 coat protein” value with MS2 coat protein [1] was 162 nM; in the data set with MS2 coat protein [2], 67.9 nM.
On the same counts, the results for “AAACUACUAGGAUAUACAACGGUGUCCUAACUACUAAGAAAACAUGAGGAUCACCCAUGUAGAAGGAGUAGUGA [Lauslabe]” are 33.6 nM and 30.2 nM.
In the case of “AAAGAUGGAGGAUAUACAUGAGGAUCACCCAUGUGGAAUCUAAAAUGGGAAAAAGAAAGUAGAAGGCCAUAAAA [Ex 3 May 40]”, the “apparent KD of MS2 coat protein” value stood at 36.7 nM with MS2 coat protein [1] and 83.1 nM in the data set with MS2 coat protein [2].
For the sequence “AAAGAUUGAGGAUAUACAUGAGGAUCACCCAUGUAAAAAAAAAAAAGGGUGGAAGAAAGUAGAAGGCAACAAAA [Ex 3 May 46]”, the “apparent KD of MS2 coat protein” value with MS2 coat protein [1] was determined as 80.6 nM; in the data set on MS2 coat protein [2], 284 nM.
The corresponding values for “AAAGCUGAAGGAUAUACUUGGAAAAAAAAAAAAAAAAAAAAACAUGAGGAUCACCCAUGUAGAAGGUCAGAUAA [Mat - Mod]” are 41.1 nM and 36.7 nM.
Turning to “AAAGGGUCAGGAUAUCGAUGAAUAAUAAAACAAAGGAACAUCGAGAAGGGACAUGAGGAUCACCCAUGUAUAAC [May 80]”, the “apparent KD of MS2 coat protein” value with MS2 coat protein [1] was found to be 42.4 nM; in the data set with MS2 coat protein [2], 48.4 nM.
As to “AAAUAGUUAGGAUAUACAUGAGGAUCACCCAUGUGGACUGAUGUCGCGUGAUUCAGUGGUAGAAGGGACUCAAA [EX2 Malc#36]”, the “apparent KD of MS2 coat protein” value in the data set on MS2 coat protein [1] was 47.3 nM; with MS2 coat protein [2], 75 nM.
In the case of “AAAUAGUUAGGAUAUACAUGAGGAUCACCCAUGUGGACUUAUGGAGAAUAGUCUAAUGGUAGAAGGGACUAAAA [EX2 Malc#24]”, the entries for the “apparent KD of MS2 coat protein” value in the data set on MS2 coat protein [1] and in the data set on MS2 coat protein [2] were 69.8 nM and 45.8 nM, respectively.
Take “AAAUGACUAGGAUAUACAUGAGGAUCACCCAUGUGUUAAAAUAAAUACACAAAAGAAAGUAGAAGGAGUCAAAG [Mat - Exclusion 3 - Mayanna mod - D125]”: the “apparent KD of MS2 coat protein” value was 21.5 nM in the data set on MS2 coat protein [1] and 43.4 nM in the data set with MS2 coat protein [2].
For the sequence “AACAAGUCAGGAUAUGCGAAAAGAAAAUAAGAUACACAAAAGCAGAAGGGACAUGAGGAUCACCCAUGUAAAUA [JR_Exc004_Sub011]”, the “apparent KD of MS2 coat protein” value is 36 nM in the data set with MS2 coat protein [1] and 33.1 nM with MS2 coat protein [2].
Turning to “AACAGGACAGGAUAUACAUGAGGAUCACCCAUGUGAAGAUUAAGAAGAAACCCACAAAGUAGAAGGGUCCUGGA [Ruby 93]”, the “apparent KD of MS2 coat protein” value was 25 nM with MS2 coat protein [1] and 51 nM with MS2 coat protein [2].
As for “AACAGGACAGGAUAUACAUGAGGAUCACCCAUGUGAGAAUUAAGUAGAUUACCACAGAGUAGAAGGGUCCUGGA [Ruby 96]”, the “apparent KD of MS2 coat protein” value with MS2 coat protein [1] was determined as 47.7 nM; in the data set with MS2 coat protein [2], 99.5 nM.
As for “AACAGUACAGGAUAUACAUGAGGAUCACCCAUGUAAAAAUAAAAAGGGAACUCAAAAAGUAGAAGGGUACUGGA [Moding Maslow revisited (73) 14]”, the “apparent KD of MS2 coat protein” value in the data set with MS2 coat protein [1] is 72.6 nM; in the data set with MS2 coat protein [2], 32.5 nM.
With “AACAGUACAGGAUAUACAUGAGGAUCACCCAUGUAAAAUAAAUAAAAAUAAAAAGGAAGUAGAAGGGUACUGGA [Moding Maslow revisited (73) 18]”, the entries for the “apparent KD of MS2 coat protein” value in the data set with MS2 coat protein [1] and in the data set with MS2 coat protein [2] were 30.1 nM and 26.4 nM, respectively.
Consider “AACAGUACAGGAUAUACAUGAGGAUCACCCAUGUAAAGGGAAUAAAACAAAAAUAAAUGUAGAAGGGUACUGGA [Moding Maslow revisited (73) 21]”, for which the figures for the “apparent KD of MS2 coat protein” value with MS2 coat protein [1] and in the data set with MS2 coat protein [2] were 69.3 nM and 129 nM, respectively.
